Source: paper PMC3578099 (Journal of structural biology, 2013)
Like-named read-outs stand apart in the source and are kept apart here. Square brackets hold non-standard residues; d marks the D form. Ends that are not written are not given here. pY = N[C@@H](Cc1ccc(OP(=O)(O)O)cc1)C(=O)O

Key:
[1] = biological target: T1, SHP-1 C453S catalytic domain (residues 243–530) (human, UniProt P29350 243-530, C453S); assay: ITC
[2] = biological target: T1, SHP-1 C453S catalytic domain (residues …); assay: ITC; remark: listed apart in the source

T1 sequence (P29350 243-530 C453S): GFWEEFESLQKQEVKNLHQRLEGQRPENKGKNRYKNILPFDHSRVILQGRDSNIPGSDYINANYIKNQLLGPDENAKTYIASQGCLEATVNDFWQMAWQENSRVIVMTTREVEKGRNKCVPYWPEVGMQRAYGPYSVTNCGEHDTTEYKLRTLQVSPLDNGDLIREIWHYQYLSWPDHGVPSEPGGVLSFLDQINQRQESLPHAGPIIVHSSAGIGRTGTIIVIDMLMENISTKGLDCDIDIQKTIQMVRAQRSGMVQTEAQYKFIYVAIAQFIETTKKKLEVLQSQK

Kd [1] | Kd [2] | dH [2] | stoichiometry N [2] | Binder
13.4 µM | 13.7 ± 1.4 µM | -28.7 ± 7.3 kcal/mol | 0.7 | ETDKE[pY]YTVKD [JAK1 activation loop phosphopeptide E1029TDKEpYYTVKD]
 | 5.6 ± 1.1 µM | -21.5 ± 3.5 kcal/mol | 0.9 | ETDKEY[pY]TVKD [JAK1 activation loop phosphopeptide E1029TDKEYpYTVKD]
